This is an account of results in patent US20150165067A1 (Eli Lilly, published 2015).

For assay [1], the target named is human FGFR3 wild type, endogenous on tumor cell lines (BFTC-905, KU-19-19, UMUC-3) (human) (UniProt P22607). In words: flow cytometry, 15 µg/mL Alexa488-labeled Antibody 1 on KU-19-19 cells, quantified with Quantum Simply Cellular beads.
Assay [2] has as its target FGFR3-TACC3 fusion on RT-4 bladder tumor cells (TACC3 exon-4) (human, UniProt Q9Y6A5 140-838, limits assumed). The experiment in a line: cell-based or functional assay.
Assay [3] deals with human FGFR3 on RT-112 bladder tumor cells (wild type and FGFR3-TACC3 fusion receptors) (human) (UniProt P22607). In words: flow cytometry, 15 µg/mL Alexa488-labeled Antibody 1 on RT-112 cells, quantified with Quantum Simply Cellular beads. A general note: In flow cytometry, cells or beads pass a laser one at a time.
The target in assay [4] is human FGFR3 S249C, endogenous on UMUC-14 bladder tumor cells (human) (UniProt P22607). The experiment in a line: cell-based or functional assay.
The target in assay [5] is human FGFR3 on RT-112 bladder tumor cells (wild type and FGFR3-TACC3 fusion receptors) (human) (UniProt P22607). The experiment in a line: cell-based or functional assay.
For assay [6], the target named is human FGFR3 Y373C, endogenous on KMS-11 multiple myeloma cells (human) (UniProt P22607). In words: flow cytometry, 15 µg/mL Alexa488-labeled Antibody 1 on KMS-11 cells, quantified with Quantum Simply Cellular beads.
The target in assay [7] is human FGFR3 wild type, endogenous on tumor cell lines (BFTC-905, KU-19-19, UMUC-3) (human) (UniProt P22607). The experiment in a line: flow cytometry, 15 µg/mL Alexa488-labeled Antibody 1 on BFTC-905 cells, quantified with Quantum Simply Cellular beads.
The target in assay [8] is human FGFR3 S249C, endogenous on UMUC-14 bladder tumor cells (human) (UniProt P22607). The experiment in a line: flow cytometry, 15 µg/mL Alexa488-labeled Antibody 1 on UMUC-14 cells, quantified with Quantum Simply Cellular beads.
The target in assay [9] is human FGFR3 on Kato-III gastric tumor cells (human, UniProt P22607 23-806). The experiment in a line: cell-based or functional assay.
The target in assay [10] is T1, human FGFR3(IIIb) WT on BaF3 cells (human, UniProt P22607 23-808). The experiment in a line: cell-based or functional assay.
Assay [11] deals with T2, human FGFR3 on RT-112 bladder tumor cells (wild type and FGFR3-TACC3 fusion receptors) (human, UniProt P22607 23-806). The experiment in a line: cell-based or functional assay.
For assay [12], the target named is T3, huFGFR3(IIIb), immobilized receptor (human, UniProt P22607-2 23-377, limits assumed).
T3 construct: Amine-coupled to a CM5 chip; also called human FGFR3(IIIb)
T3 sequence (looked up): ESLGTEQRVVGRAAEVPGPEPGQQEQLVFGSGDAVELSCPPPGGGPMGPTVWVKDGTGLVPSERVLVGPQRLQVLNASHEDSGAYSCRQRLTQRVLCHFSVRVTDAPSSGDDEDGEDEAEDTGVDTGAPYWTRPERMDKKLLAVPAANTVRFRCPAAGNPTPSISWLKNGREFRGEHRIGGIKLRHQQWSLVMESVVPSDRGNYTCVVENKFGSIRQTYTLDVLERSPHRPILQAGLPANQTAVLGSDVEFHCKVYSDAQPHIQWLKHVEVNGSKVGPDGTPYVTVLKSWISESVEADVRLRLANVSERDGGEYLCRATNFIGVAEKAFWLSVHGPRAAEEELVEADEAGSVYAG
In words: SPR, Biacore T200, 25 C, huFGFR3(IIIb) amine-coupled on CM5 chip, Conjugate 1 as analyte, 1:1 model, n=3. How it is done: Use a CM5 chip containing immobilized receptor huFGFR3(IIIb) (generated using standard NHS-EDC amine coupling) on 2 flow cells. Prepare samples of Conjugate 1 by 2 fold serial dilutions starting at 60 nM, 6 dilutions total into running buffer. Immobilize receptor at 2.5 μg/mL (55 RU). Each analysis cycle consists of: (1) sample injection at 30 μL/min with 180 sec contact time, (2) dissociation by injection of buffer for 900 sec at 30 μL/min, (3) regeneration in a 0.5% solution of SDS contact time 30 sec at a flow rate of 40 μL/min. Process data using standard double-referencing and fit to a 1:1 binding model using Biacore® 2000 Evaluation software, version 4.1, to determine the association rate (kₒₙ, M⁻¹s⁻¹ units), dissociation rate (koff, s⁻¹ units), and Rmax (RU units). The equilibrium dissociation constant (KD) is calculated from the relationship of KD=koff/kₒₙ. KD is in molar units.
On the technique in general: Surface plasmon resonance follows binding to a sensor surface in real time, without labels.

The target in the next assay is T4, human FGFR3(IIIb)-Fc (human, UniProt P22607-2 23-377, limits assumed).
T4 construct: Coated on the MSD plate; not shown: Fc part
T4 sequence (looked up): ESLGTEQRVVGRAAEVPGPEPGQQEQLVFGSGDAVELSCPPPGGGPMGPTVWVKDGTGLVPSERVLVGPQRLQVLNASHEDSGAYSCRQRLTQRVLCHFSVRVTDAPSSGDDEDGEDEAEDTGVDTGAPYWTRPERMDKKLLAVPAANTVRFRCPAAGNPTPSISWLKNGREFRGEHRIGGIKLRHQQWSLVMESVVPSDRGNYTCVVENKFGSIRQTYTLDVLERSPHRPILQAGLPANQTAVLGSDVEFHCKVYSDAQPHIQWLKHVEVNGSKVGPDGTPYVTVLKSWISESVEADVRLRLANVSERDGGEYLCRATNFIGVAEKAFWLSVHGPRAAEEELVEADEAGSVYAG
In words: MSD electrochemiluminescence plate assay: blocking of ruthenium-labeled FGF1 (1 ug/mL, with heparin) binding to coated human FGFR3(IIIb)-Fc.

The target of assay [13] is human FGFR3 wild type, endogenous on tumor cell lines (BFTC-905, KU-19-19, UMUC-3) (human, UniProt P22607 23-806). The experiment in a line: cell-based or functional assay.
Assay [14] has as its target T2, human FGFR3 on RT-112 bladder tumor …. In words: cell-based or functional assay. The source holds these as a separate data set.
Assay [15] concerns the target human FGFR3(IIIb) S249C on BaF3 cells (human, UniProt P22607 23-808). The experiment in a line: cell-based or functional assay.
Assay [16] has as its target T1, human FGFR3(IIIb) WT on BaF3 cells. In words: cell-based or functional assay. This is another data set of the same source.
The target in assay [17] is human FGFR3(IIIb) R248C on BaF3 cells (human, UniProt P22607 23-808). The experiment in a line: cell-based or functional assay.
In assay [18] the target is human FGFR3(IIIb) G372C on BaF3 cells (human, UniProt P22607 23-808). The experiment in a line: cell-based or functional assay.
Assay [19] deals with human FGFR3(IIIb) Y375C on BaF3 cells (human, UniProt P22607 23-808). The experiment in a line: cell-based or functional assay.
The target in assay [20] is T3, huFGFR3(IIIb), immobilized receptor. In words: SPR (Biacore); the sentence names no antigen or format, the section is on immobilized huFGFR3(IIIb); naked Antibody 1, not Conjugate 1.

B1: Antibody 1-Alexa488 (antibody, human IgG1, lambda, V domains shown)
VH: EVQLVQSGAEVKKPGASVKVSCKASGYMFTSYGISWVRQAPGQGLEWMGWVSTYNGDTNYAQKFQGRVTVTTDTSTSTAYMELRSLRSEDTAVYYCARVLGYYDSIDGYYYGMDVWGQGTTVTVSS
VL: QSVLTQPPSLSVAPGKTATFTCGGNNIGDKSVHWYRQKPGQAPVLVMYLDTERPSGIPERMSGSNFGNTATLTITRVEAGDEADYYCQVWDSGSDHVVFGGGTKLTVLG
modifications: Alexa488 label (sites not given)
As to B1, the FGFR3 cell surface expression (ABC) in [1] was below 4000 ABC; in assay [3], 16000 ABC; in assay [6] it was 120000 ABC; in assay [7], 11000 ABC; in [8] it was 27000 ABC. The “internalization in RT-4 cells, cell-associated fluorescence by flow cytometry over 48 h” value in assay [2] is around 7 fold over background. In assay [4], the internalization in UMUC-14 cells, cell-associated fluorescence by flow cytometry over 48 h (fold over control) was above 9. This molecule also displayed an internalization in RT-112 cells, cell-associated fluorescence by flow cytometry over 48 h (fold over background) in [5] of 7.

B2: Conjugate 1 (antibody, human IgG1, lambda, V domains shown)
VH: EVQLVQSGAEVKKPGASVKVSCKASGYMFTSYGISWVRQAPGQGLEWMGWVSTYNGDTNYAQKFQGRVTVTTDTSTSTAYMELRSLRSEDTAVYYCARVLGYYDSIDGYYYGMDVWGQGTTVTVSS
VL: QSVLTQPPSLSVAPGKTATFTCGGNNIGDKSVHWYRQKPGQAPVLVMYLDTERPSGIPERMSGSNFGNTATLTITRVEAGDEADYYCQVWDSGSDHVVFGGGTKLTVLG
modifications: DM4 attached through the sulfo-SPDB linker to available lysine residues (positions not given); DAR 3.5 ± 0.5 for the whole antibody
notes: also called Antibody 1-sulfo-SPDB-DM4; the conjugate of the present invention
Regarding B2, in assay [9], the “cytotoxicity IC50 (nM), Kato-III cells” value was found to be 5.4 nM. Also, the “cytotoxicity IC50 (nM), transfected Baf3-FGFR3(IIIb) cells” value in assay [10] worked out at 2.5 nM. In assay [11], the “cytotoxicity IC50 (nM), RT112 cells” value was 2.1 nM. Moreover, in assay [12], binding was characterised by a dissociation constant (Kd) of 0.823 nM; the koff (usually the first-order rate constant of dissociation) amounted to 0.000187 s⁻¹; the kon (in general, the rate constant with which the complex forms) was 227000 M⁻¹ s⁻¹. In addition, the IC50 (commonly the concentration that gives 50% inhibition) in the assay with human FGFR3(IIIb)-Fc came to 3.6 nM. The “Cytotoxicity Conjugate 1 IC50, BFTC-905 (bladder) cells, Cell Titer-Glo, 96 h” value in [13] is 2.7 nM. Moreover, the “Cytotoxicity Conjugate 1 IC50, RT-112 (bladder) cells, Cell Titer-Glo, 96 h” value in [14] is 1.3 nM.

B3: Antibody 1 (antibody, human IgG1, lambda, V domains shown)
VH: EVQLVQSGAEVKKPGASVKVSCKASGYMFTSYGISWVRQAPGQGLEWMGWVSTYNGDTNYAQKFQGRVTVTTDTSTSTAYMELRSLRSEDTAVYYCARVLGYYDSIDGYYYGMDVWGQGTTVTVSS
VL: QSVLTQPPSLSVAPGKTATFTCGGNNIGDKSVHWYRQKPGQAPVLVMYLDTERPSGIPERMSGSNFGNTATLTITRVEAGDEADYYCQVWDSGSDHVVFGGGTKLTVLG
notes: Human monoclonal antibody with a lambda light chain; also called naked Antibody 1; anti-FGFR3 antibody
Regarding B3, the “IC50 for neutralizing FGF1 (51.6 nM)-induced 3H-thymidine incorporation in BaF3 cells” value came out at 2.17 nM in assay [15]; 4.2 nM in assay [16]; 1.32 nM in [17]; 4.81 nM in [18]; 8.77 nM in [19]. In addition, the figures for the “IC50 for neutralizing FGF9 (34.72 nM)-induced 3H-thymidine incorporation in BaF3 cells” value in [15], in assay [16] and in [19] were 0.46 nM, 0.4 nM and 1.42 nM, respectively. Further, binding in assay [20] was put at a Kd of 0.13 nM.
